# Source: doi:10.1101/718072
# Read-outs that look alike come from different tables or passages of the source.
# How the values were obtained:
# [1] = target: FliF (flagellar MS-ring protein) from Salmonella enterica serovar Typhimurium (Salmonella enterica serovar Typhimurium) (UniProt P15928); assay: cryo-EM structure
# [2] = target: FliF (flagellar MS-ring protein) from Salmonella enterica serovar Typhimurium (Salmonella enterica serovar Typhimurium) (UniProt P15928); assay: cryo-EM structure; remark: listed apart in the source
substance,measurement,setting,value
FliF (flagellar MS-ring protein) from Salmonella enterica serovar Typhimurium (from UniProt P15928 1-560) (natural protein),stoichiometry N,[1],34
same,stoichiometry N,[2],33
